{"source": "paper PMC7498053", "molecular_target": "RNA polymerase II (Pol II) immunopurified from HeLa cell nuclear extracts (human (endogenous in HeLa)) (UniProt P24928)", "assay": "negative stain electron microscopy; minimal PIC (DNA/TBP/TFIIA/TFIIB/Pol II/TFIIF) assembled sequentially on biotinylated promoter DNA, GST-ORF24-NTD added last; purified on streptavidin beads, eluted with EcoRI, cross-linked with 0.05% glutaraldehyde; 2D and 3D classification and difference maps, ~20 A", "data": [{"substance": "GST-ORF24-NTD (KSHV ORF24 residues 1-201 with an N-terminal GST tag) (domain or fragment)", "values": [{"measurement": "percent of PIC particle images with extra density", "result": 25, "unit": "%"}]}]}
